Holding throughout (assay): BLI
(In general: In BLI a coated tip is dipped into the sample, and binding shifts an interference pattern.)

The target in test [1] is monoFc-tagged NRP2 (human neuropilin 2 residues 23-595, a1a2b1b2) (human) (UniProt O60462).
Test [2] has as its target NRP2 a2b1b2 (human neuropilin 2 residues 145-595, monoFc-tagged) (human) (UniProt O60462).
For test [3], the target named is soluble ectodomain of the HCMV Pentamer (strain Towne) (Human cytomegalovirus strain Towne, UniProt P17176;F5HCH8;P16837;F5HCP3;F5HET4).

The values that follow come from publication doi:10.1101/2021.03.25.436804 (bioRxiv, 2021).

Usually Kd stands for a measure of binding affinity in units of concentration. A lower Kd goes with higher affinity.

monoFc-tagged NRP2 (human neuropilin 2 residues 23-595, a1a2b1b2) (human), sequence (O60462 23-595): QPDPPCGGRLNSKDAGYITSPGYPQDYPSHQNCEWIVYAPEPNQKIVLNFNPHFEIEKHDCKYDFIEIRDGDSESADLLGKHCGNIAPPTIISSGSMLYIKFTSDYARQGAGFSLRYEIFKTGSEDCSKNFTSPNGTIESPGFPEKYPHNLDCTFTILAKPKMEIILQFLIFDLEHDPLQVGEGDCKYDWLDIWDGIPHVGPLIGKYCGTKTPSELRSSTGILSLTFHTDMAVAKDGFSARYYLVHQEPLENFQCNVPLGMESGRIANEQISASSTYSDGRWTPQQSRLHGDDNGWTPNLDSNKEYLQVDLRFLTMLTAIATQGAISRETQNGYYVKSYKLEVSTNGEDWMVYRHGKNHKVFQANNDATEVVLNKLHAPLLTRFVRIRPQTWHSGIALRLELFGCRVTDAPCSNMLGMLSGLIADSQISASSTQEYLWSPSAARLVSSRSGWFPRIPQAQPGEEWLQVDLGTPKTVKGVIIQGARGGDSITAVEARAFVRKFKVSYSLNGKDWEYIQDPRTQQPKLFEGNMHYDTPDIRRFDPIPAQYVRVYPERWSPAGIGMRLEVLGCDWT
NRP2 a2b1b2 (human neuropilin 2 residues 145-595, monoFc-tagged) (human), sequence (O60462 145-595): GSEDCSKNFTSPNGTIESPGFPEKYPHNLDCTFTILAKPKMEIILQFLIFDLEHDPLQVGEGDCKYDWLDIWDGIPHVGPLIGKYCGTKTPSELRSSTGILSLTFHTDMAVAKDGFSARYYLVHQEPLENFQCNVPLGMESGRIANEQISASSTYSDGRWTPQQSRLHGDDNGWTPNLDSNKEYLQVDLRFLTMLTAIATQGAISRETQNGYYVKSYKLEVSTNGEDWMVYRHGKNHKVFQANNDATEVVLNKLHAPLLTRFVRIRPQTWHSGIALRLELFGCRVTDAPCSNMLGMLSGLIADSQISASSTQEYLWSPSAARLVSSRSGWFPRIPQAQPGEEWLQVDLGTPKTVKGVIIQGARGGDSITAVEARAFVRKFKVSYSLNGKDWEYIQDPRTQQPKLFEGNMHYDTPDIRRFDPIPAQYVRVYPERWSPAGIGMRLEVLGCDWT

For “soluble ectodomain of the HCMV Pentamer (strain Towne) (from UniProt P17176 24-718) (complex)”, the dissociation constant Kd came to 2.2 nM in test [1] and 7.9 nM in test [2].

B1: 1-32 IgG (antibody, V domains shown)
VH: QVKLVESGGGVVQPGRSLRLSCAGSGFAFDNYAMHWVRQAPGKGLEWVAVISLEGRNKYYAGPAKGRFSISRDNSRNTVHLQMNSLRPEDTAVYFCARDMRYYYDSNGHYRNRYGMDVWGQGTTVIVSS
VL: DIQMTQSPSSLSASVGDSVTITCQASQDINQFVSWYQQKPGKPPKLLIYDASNLESGVPSRFSGSGSGTHFTFTISSLQPDDIATYYCQQYENLFTFGPGTKVDIK
With B1, the binding result in test [3] was “binds”.
